Experimental data: patent US20120225828A1 (PALATIN TECHNOLOGIES, published 2012)
Bridge positions count the residues as written; N and C are the ends. Square brackets hold non-standard residues; d marks the D form. dPhe(3-Cl) = N[C@H](Cc1cccc(Cl)c1)C(=O)O; dPhe(4-Cl) = N[C@H](Cc1ccc(Cl)cc1)C(=O)O; dPhe(2-Cl) = N[C@H](Cc1ccccc1Cl)C(=O)O; dPhe(4-F) = N[C@H](Cc1ccc(F)cc1)C(=O)O; dPhe(2-F) = N[C@H](Cc1ccccc1F)C(=O)O; Cit = NC(=O)NCCC[C@H](N)C(=O)O; Nle = CCCC[C@H](N)C(=O)O; Orn = NCCC[C@H](N)C(=O)O; Dab = NCC[C@H](N)C(=O)O

Molecular target: human melanocortin-1 receptor hMCR-1 expressed by the human melanoma cell line HBL (human, UniProt Q01726 1-317)
Experiment: cell-based or functional assay

human melanocortin-1 receptor hMCR-1 expressed by the human melanoma cell line HBL, sequence (Q01726 whole entry): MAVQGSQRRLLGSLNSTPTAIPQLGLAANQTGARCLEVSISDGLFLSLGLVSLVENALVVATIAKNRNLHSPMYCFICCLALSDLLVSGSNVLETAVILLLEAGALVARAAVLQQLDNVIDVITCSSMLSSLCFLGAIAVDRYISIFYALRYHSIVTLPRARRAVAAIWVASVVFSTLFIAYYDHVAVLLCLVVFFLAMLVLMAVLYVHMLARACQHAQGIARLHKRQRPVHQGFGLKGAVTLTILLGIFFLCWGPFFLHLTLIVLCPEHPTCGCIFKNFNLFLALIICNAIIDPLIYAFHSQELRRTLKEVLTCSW

Binder | MC-1 EC50 (average; cAMP HBL) [nM] | MC-1 Emax (average; cAMP HBL) [%]
Ac-[Nle]EH[dF]R[Orn]W-NH2 (lactam 2-6) [Ac-Nle-cyclo(Glu-His-D-Phe-Arg-Orn)-Trp-NH2] | – | 91
Ac-[Nle]E[Cit][dF]R[Dab]W-NH2 (lactam 2-6) [Ac-Nle-cyclo(Glu-Cit-D-Phe-Arg-Dab)-Trp-NH2 (SEQ ID NO: 54)] | – | 97
Ac-[Nle]E[Dab][dF]R[Dab]W-NH2 (lactam 2-6) [Ac-Nle-cyclo(Glu-Dab-D-Phe-Arg-Dab)-Trp-NH2 (SEQ ID NO: 57)] | – | 108
Ac-[Nle]EH[dF]R[Dab]K-NH2 (lactam 2-6; SMILES CCCC[C@H](NC(C)=O)C(=O)N[C@H]1CCC(=O)NCC[C@@H](C(=O)N[C@@H](CCCCN)C(N)=O)NC(=O)[C@H](CCCNC(=N)N)NC(=O)[C@@H](Cc2ccccc2)NC(=O)[C@H](Cc2c[nH]cn2)NC1=O) [Ac-Nle-cyclo(Glu-His-D-Phe-Arg-Dab)-Lys-NH2 (SEQ ID NO: 55)] | 0.175 | 91
Ac-[Nle]EK[dF]R[Dab]W-NH2 (lactam 2-6) [Ac-Nle-cyclo(Glu-Lys-D-Phe-Arg-Dab)-Trp-NH2 (SEQ ID NO: 56)] | – | 108

Results, then the binder that gave them:

MC-1 EC50 (average; cAMP HBL) [nM] | MC-1 Emax (average; cAMP HBL) [%] | Binder
0.5 | 102 | Ac-[Nle]E[Orn][dF]R[Dab]-NH2 (lactam 2-6; SMILES CCCC[C@H](NC(C)=O)C(=O)N[C@H]1CCC(=O)NCC[C@@H](C(N)=O)NC(=O)[C@H](CCCNC(=N)N)NC(=O)[C@@H](Cc2ccccc2)NC(=O)[C@H](CCCN)NC1=O) [Ac-Nle-cyclo(Glu-Orn-D-Phe-Arg-Dab)-NH2]
0.1 | 100 | Ac-[Nle]E[Orn][dPhe(4-Cl)]R[Dab]-NH2 (lactam 2-6; SMILES CCCC[C@H](NC(C)=O)C(=O)N[C@H]1CCC(=O)NCC[C@@H](C(N)=O)NC(=O)[C@H](CCCNC(=N)N)NC(=O)[C@@H](Cc2ccc(Cl)cc2)NC(=O)[C@H](CCCN)NC1=O) [Ac-Nle-cyclo(Glu-Orn-D-Phe(4-Cl)-Arg-Dab)-NH2]
0.8 | 95 | Ac-[Nle]E[Orn][dPhe(2-F)]R[Dab]-NH2 (lactam 2-6; SMILES CCCC[C@H](NC(C)=O)C(=O)N[C@H]1CCC(=O)NCC[C@@H](C(N)=O)NC(=O)[C@H](CCCNC(=N)N)NC(=O)[C@@H](Cc2ccccc2F)NC(=O)[C@H](CCCN)NC1=O) [Ac-Nle-cyclo(Glu-Orn-D-Phe(2-F)-Arg-Dab)-NH2]
2 | 86 | Ac-[Nle]E[Orn][dPhe(3-Cl)]R[Dab]-NH2 (lactam 2-6; SMILES CCCC[C@H](NC(C)=O)C(=O)N[C@H]1CCC(=O)NCC[C@@H](C(N)=O)NC(=O)[C@H](CCCNC(=N)N)NC(=O)[C@@H](Cc2cccc(Cl)c2)NC(=O)[C@H](CCCN)NC1=O) [Ac-Nle-cyclo(Glu-Orn-D-Phe(3-Cl)-Arg-Dab)-NH2]
1 | 102 | Ac-[Nle]E[Orn][dPhe(4-F)]R[Dab]-NH2 (lactam 2-6; SMILES CCCC[C@H](NC(C)=O)C(=O)N[C@H]1CCC(=O)NCC[C@@H](C(N)=O)NC(=O)[C@H](CCCNC(=N)N)NC(=O)[C@@H](Cc2ccc(F)cc2)NC(=O)[C@H](CCCN)NC1=O) [Ac-Nle-cyclo(Glu-Orn-D-Phe(4-F)-Arg-Dab)-NH2]
– | 109 | Ac-[Nle]E[Orn][dF]R[Dab]W-NH2 (lactam 2-6) [Ac-Nle-cyclo(Glu-Orn-D-Phe-Arg-Dab)-Trp-NH2 (SEQ ID NO: 58)]
1 | 88 | Ac-[Nle]E[Orn][dPhe(2-Cl)]R[Dab]-NH2 (lactam 2-6; SMILES CCCC[C@H](NC(C)=O)C(=O)N[C@H]1CCC(=O)NCC[C@@H](C(N)=O)NC(=O)[C@H](CCCNC(=N)N)NC(=O)[C@@H](Cc2ccccc2Cl)NC(=O)[C@H](CCCN)NC1=O) [Ac-Nle-cyclo(Glu-Orn-D-Phe(2-Cl)-Arg-Dab)-NH2]
